In experiment [1] the target is SARS-CoV-2 Omicron BA.3 RBD protein with His-tag, spike residues 319-541 (SARS-CoV-2). Briefly: SPR.
Experiment [2] addresses BA.2 RBD with the S408R mutation (SARS-CoV-2). As to the kind of experiment: SPR.

Human ACE2 protein, residues 19-615 (produced by HEK293F cells, used for SPR), sequence (Q9BYF1 19-615): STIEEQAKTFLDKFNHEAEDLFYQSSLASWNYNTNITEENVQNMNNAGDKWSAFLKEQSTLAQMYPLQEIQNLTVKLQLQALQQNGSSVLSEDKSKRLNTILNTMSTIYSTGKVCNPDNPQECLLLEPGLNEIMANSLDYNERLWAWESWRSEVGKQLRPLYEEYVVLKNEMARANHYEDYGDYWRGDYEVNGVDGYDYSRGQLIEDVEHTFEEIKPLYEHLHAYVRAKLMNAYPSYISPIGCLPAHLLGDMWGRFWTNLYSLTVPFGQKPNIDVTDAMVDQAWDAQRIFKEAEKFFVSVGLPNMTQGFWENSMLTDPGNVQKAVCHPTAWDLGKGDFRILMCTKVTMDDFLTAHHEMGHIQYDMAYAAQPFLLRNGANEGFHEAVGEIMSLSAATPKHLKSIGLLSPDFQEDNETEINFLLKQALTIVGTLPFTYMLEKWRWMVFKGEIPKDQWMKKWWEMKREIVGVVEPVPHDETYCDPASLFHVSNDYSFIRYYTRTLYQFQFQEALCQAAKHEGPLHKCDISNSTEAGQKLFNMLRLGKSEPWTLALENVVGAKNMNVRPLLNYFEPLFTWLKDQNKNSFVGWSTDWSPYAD

Consider “Human ACE2 protein, residues 19-615 (produced by HEK293F cells, used for SPR) (from UniProt Q9BYF1-1 19-615) (receptor)”, for which the Kd in experiment [1] was 22.1 nM; in experiment [2], 16.4 nM.

The values are drawn from article PMC9212699.
